In the DeepSol protein solubility set:

Assay: soluble on expression in E. coli; label from the status in PepcDB or PDB records

Row | Sequence | soluble on expression in E. coli
1 | MDQVEIRTHTALHVVKGAVRKVLGAKWTASTYVNSNHGRLTVKFERKPSDQEMDKVFELANEKVRKNLPIIIEVLPREEAERKYGDEIYDLFLISAEVRELSIVVIPDWSINACNKQHTKFTSEIGEIIKDYWRYRNSKQLLEISFDIKC | soluble
2 | MEPADEPSELVSAEGRNRKAVLCQRCGSRVLQPGTALFSRRQLFLPSMRKKPALSDGSNPDGDLLQEHWLVEDMFIFENVGFTKDVGNIKFLVCADCEIGPIGWHCLDDKNSFYVALERVSHE | soluble
3 | MKKVLIAALIAGFSLSATAAQTIRFATEASYPPFESMDANNKIVGFDVDLANALCKEIDASCTFTNQAFDSLIPSLKFRRFDAVMAGMDITPEREKQVLFTTPYYDNSALFVGQQGKYTSVDQLKGKKVGVQNGTTHQKFIMDKHPEITTVPYDSYQNAKLDLQNGRIDAVFGDTAVVTEWLKANPKLAPVGDKVTDKDYFGTGLGIAVRQGNTELQQKFNTALEKVKKDGTYETIYNKWFQK | not soluble
4 | ESIQRPTPINQVFPDPGLANAVKQNLGKQSVTDLVSQKELSGVQNFNGDNSNIQSLAGMQFFTNLKELHLSHNQISDLSPLKDLTKLEELSVNRNRLKNLNGIPSACLSRLFLDNNELRDTDSLIHLKNLEILSIRNNKLKSIVMLGFLSKLEVLDLHGNEITNTGGLTRLKKVNWIDLTGQKCVNEPVKYQPELYITNTVKDPDGRWISPYYISNGGSYVDGCVLWELPVYTDEVSYKFSEYINVGETEAIFDGTVTQPIKN | soluble
5 | MGSDKIHHHHHHMSVFATFASQTRIQAILVMQTALSVSSRLSLEPTGTDMPVIKGPDGLPFIPGSSIKGVVRFQVERILRTWDRRPDFWACDPFDAPCIPAKKKEQLLNDAETDQSFAETVWKESCTACRLFGSPWFAGRVAFRDAYLLNPEDLPTLTQIRDGVGIDRDLGTARSGIKYDFETVIPGARFGLEILAENLEEWEIGFLLTVLRLWEEGGIAIGGKTTRGPGWGKLQEIKIQRVGISNLMDYLLERKSSEVAATQFLQTFREWLKERGAGDA | not soluble
6 | MGSDKIHHHHHHMTSPRIISIEGPMGAGKTSLARQLAQSLGGRMILEAPAQNPFLSRFYQGPGAALATELQFFMQRREQWRHRDDSSWLISDHSARKDEIFTPLTLDAEEHHLFNELRMALDFHPAPADLMIFLDAPLAVLMKRIRARGDAYEQALAPDYLARVQAAYRAWQANYALPRMNVDSAQVDFVHDPRHTERLIDAVRHRLKDAEEQDA | not soluble
7 | MSEPLLIARTPDTELFLLPGMANRHGLITGATGTGKTVTLQKLAESLSEIGVPVFMADVKGDLTGVAQAGTVSEKLLARLKNIGVNDWQPHANPVVVWDIFGEKGHPVRATVSDLGPLLLARLLNLNDVQSGVLNIIFRIADDQGLLLLDFKDLRAITQYIGDNAKSFQNQYGNISSASVGAIQRGLLSLEQQGAAHFFGEPMLDIKDWMRTDANGKGVINILSAEKLYQMPKLYAASLLWMLSELYEQLPEAGDLEKPKLVFFFDEAHLLFNDAPQVLLDKIEQVIRLIRSKGVGVWFVSQNPSDIPDNVLGQLGNRVQHALRAFTPKDQKAVKAAAQTMRANPAFDTEKAIQELGTGEALISFLDAKGSPSVVERAMVIAPCSRMGPVTEDERNGLINHSPVYGKYEDEVDRESAYEMLQKGFQASTEQQNNPPAKGKEVAVDDGILGGLKDILFGTTGPRGGKKDGVVQTMAKSAARQVTNQIVRGMLGSLLGGRRR | soluble
8 | MFSWLGTDDRRRKDPEVFQTVSEGLKKLYKSKLLPLEEHYRFHEFHSPALEDADFDNKPMVLLVGQYSTGKTTFIRYLLEQDFPGMRIGPEPTTDSFIAVMQGDMEGIIPGNALVVDPKKPFRKLNAFGNAFLNRFVCAQLPNPVLESISVIDTPGILSGEKQRISRGYDFAAVLEWFAERVDRIILLFDAHKLDISDEFSEVIKALKNHEDKMRVVLNKADQIETQQLMRVYGALMWSLGKIVNTPEVIRVYIGSFWSHPLLIPDNRKLFEAEEQDLFRDIQSLPRNAALRKLNDLIKRARLAKVHAYIISSLKKEMPSVFGKDNKKKELVNNLAEIYGRIEREHQISPGDFPNLKRMQDQLQAQDFSKFQPLKSKLLEVVDDMLAHDIAQLMVLVRQEESQRPIQMVKGGAFEGTLHGPFGHGYGEGAGEGIDDAEWVVARDKPMYDEIFYTLSPVDGKITGANAKKEMVRSKLPNSVLGKIWKLADIDKDGMLDDDEFALANHLIKVKLEGHELPTSCLPTSCPRPRGKLPSDGVGGHSDGQC | not soluble
9 | MPPSLRKAVAAAIGGGAIAIASVLITGPSGNDGLEGVSYIPYKDIVGVWTVCHGHTGKDIMLGKTYTKAECKALLNKDLATVARQINPYIKVDIPETTRGALYSFVYNVGAGNFRTSTLLRKINQGDIKGACDQLRRWTYAGGKQWKGLMTRREIEREVCLWGQQ | not soluble
10 | MGSDKIHHHHHHMGPINFEKAKKEREQAVIARLIDIRKAQQEYRSLHHGMYTEHFDTLIDFVKNQKLPFVMKVGQLTDDQLESGLTEKKAMAIINKAKKTGKYDEVKKNGLENFKRDTMWVAVMDTIYPKGFNADSMKYIPYGNGAIFEMNVKNDTAKSGAPVYLFEVKAPYETYLGGLDRQEIINLKDLNEKLGRYSGLMVGSIDNPNNGAGNWE | not soluble
11 | SFDNSLSRELSRKQNENQMFVYSFEASASMLSSDTEYIQKNDIEKIIDSVKRSMGESQIGITIVNQKEKAIYTDSKIGKNIKIKDLKDNNFGYLIFKNNGSYYLETMSKMTIESGTYYISIVSSINEVYNDINEMMKN | not soluble
12 | MGHHHHHHGGHMSLRTEEEMFQLIMDVAKQEEHIRAVGMVGSRTNVKAPKDSFQDFDIVYIVEPCAEFFETATWIAKFGQPLIMQRPKEMTLFPTEPKTRETFLMLFEDGQRIDLTLCPLAEKDNWHEGDSLAIILLDKDENLPPLPVASDKNYTVTVPDQQQFNDCCNEFWWVSTYVVKGLCRNELFYAVTHLYEYCQQELLRLLSWQAAWQEPEPISVGKQFKYLKNYVTPDTMDQLASLLDFSSKEACWNSLIKTQAFFDVVAQDFAKMAQFTYHLQEAKKVTEYTNSLRLKDLQGKEGGS | not soluble
13 | MGSDKIHHHHHHMSLAPSVIEPAHEEDAFMDLLATSALDDPLAAARDATADMLRQRQGDHSLPQPFYNDPRVFALEMREIFEHEWLFVGMTCEIPAKGNYLTVQIGDNPIIVVRGDQGTIHAFHNVCRHRGSRLCTQAKGKVAKLVCPYHQWTYELDGRLLFAGQDMGEDFDLGAHGLKPVAVTHAGGFLFVSLADQPPAIDDFLATLDDYLAPYEMDNVKVAAESNIVEQANWKLVIENNRECYHCNGAHPELLNSLIEYDDTDDPRATPAYRDLVARQQAHWEQQQVPWALKRFGKRNRLTRTPMIEGVVSMTMDGRPASQRLMGRLPNPDMGSLRILHLPNSWNHFMGDHAVVFRVLPLGPQQTLVTTKWLVHRDAQEGVDYDPEWMRKVWDATTDQDRQLAEENQRGINSVAYQPGPYSRTYEFGVIDFVDWYSDTMLSRLDAEAPSLHIVQG | not soluble
14 | MGSDKIHHHHHHMEIGIIGTGNIGGTLARKLIAAGHQVRVANSKGIHGVQSFADEIGATAVDVYGAVKGADAIILSIPLPALASLPNGFFDDLPETVPLIDTSNYYPGLRDPLIPEIDDGMTESVWVSQQLSHPVIKAFNNILAWSLAELGTPKGSASRLAIAVAGDNATLKQIVMNLVDDTGFDAIDAGSLEESWRQQPSTPAYCCDYDAETMKKGLTAAVRGEAASKRDRLPELFGKLGANPTHEDIVAMNRSLNP | not soluble
15 | MGSDKIHHHHHHMPKLKLIGVDLGGTTFSVGLVSEDGKILKKVTRDTLVENGKEDVIRRIAETILEVSDGEEAPYVGIGSPGSIDRENGIVRFSPNFPDWHNVPLTDELAKRTGKKVFLENDANAFVLGEKWFGAGRGHDHIVALTLGTGIGGGVVTHGYLLTGRDGIGAELGHVVVEPNGPMCNCGTRGCLEAVASATAIRRFLREGYKKYHSSLVYKLAGSPEKADAKHLFDAARQGDRFALMIRDRVVDALARAVAGYIHIFNPEIVIIGGGISRAGEILFGPLREKVVDYIMPSFVGTYEVVASPLVEDAGILGAASIIKERIGG | not soluble
16 | MGSDKIHHHHHHMKQLPLDIIPPPPTLSNFVTGRNAELLQTLDNLLMMRKHERFVYIWGGTGCGKSHLLQGVASACKRNDMNTLYFACGERTSFANGSEADCVMVDDVDRLGADAQIGLFHLYNRIRDEGQAFLLVSGSVAPTQLKLRADLLTRLAWGLVYEVHELTDEEKMEAMKSHASSRGLALPQEVCDYLLRHERRDLTSLMAKLNALDKYSLASHRKITVPLVRELLQAAS | not soluble
17 | MQRSLFSKFRQILTYKCDWYGKELILADKTYPSTQRCAKCGYVKTGDEKITLQGNQKHGTKHNEYICYKCDYSNDRDENAVLNLLALARLEHHHHHH | not soluble
18 | MTNTLVENIYASVTHNISKKEASKNEKTKAVLNQAVADLSVAASIVHQVHWYMRGPGFLYLHPKMDELLDSLNANLDEVSERLITIGGAPYSTLAEFSKHSKLDEAKGTYDKTVAQHLARLVEVYLYLSSLYQVGLDITDEEGDAGTNDLFTAAKTEAEKTIWMLQAERGQGPAL | soluble
19 | MSLRKKIAAFGEVMMRLQVPGYELLSQANTLNYSFSGTGVNVVAALSHLGHEGLLISTLPENSVGDAAVSYIQKLGIQTSLVSRGGKYVGMYFLENGFGARASRVTYSNRLESSFNTASEEIYQFEEIAKEIDIVHFCGITLAMNDTVRHHMKSLARAVKENGGTVVFDCNYRPSLWGEDGYEQAKPHYEEMLGLADIVMMNEKDAMFVLGIKTEETEREAQLVDLIPKVAETYHIATIAGTHRSINSDNTHSLRGFICKDGTFTFAKTLTFSVYDRIGAGDAYTSGIIHGEIKEFAPEKAVSFASAAGMLAHTIVGDTPMSSEKDILRAMTASVGDVEREGHHHHHH | soluble
20 | MGHHHHHHSHMEKRKPTIQNIEVSDHTAELSLRVDADILDFQGHFSHFPLLPGVTQIDWALFYAVQYLNTPKVFKGMEVIKFQEPILPNADVCLSLSWDNEREKLTFKYTSKNGETLVTHSSGKMKLGESRE | soluble
21 | MGSDKIHHHHHHMRLKISLLSPADSFEIDLNHSYHLASAIYRAIERADPSLSIELHKPDVPKFFTFSKLFIPKRKFRIEGEKMVSDCEEAYFFFSTLRNEVAASLVEGLLSKPEIRICGVDFIVSEVSVLPEREVKGREKFVTLSPIYASTSVGENGRRRIFDLYPKDSKFYEVILQNLVKKYVLYYKSAPENLDFHMKPLNVKAKRIRLKDTFHRCVEMVFKAEGSPELLDVGYKAGFGSKNSMGFGMVKVV | not soluble
22 | EVQLQQSGPELVKPGSSVKISCKASRNTFTDYNLDWVKQSHGKTLEWIGNVYPNNGVTGYNQKFRGKATLTVDKSSSTAYMELHSLTSEDSAVYYCALYYYDVSYWGQGTLVTVSSAKTTPPSVYPLAPGSAAQTNSVTLGCLVKGYFPEPVTVTWNSGSLSSGVHTFPAVLQSDLYTLSSSVTVPSSTWPSQSVTCNVAHPASSTAVDKKIAPA | soluble
23 | MSDAMPLDQTLEQLTQDEWIDIPQGWSQGRTIYGGLVAGLLMHKALSVMNDESKNLLSTSITFVGPVNEGRVRLTVEILRQGKSVTTIEARLWQDQAVQTILIASFGQPRSLEHHHHHH | not soluble
24 | SLHGELDKIYETLALAERRGPGPVDLLLCCGDFQAVRNEADLRCMAVPPKYRHMQTFYRYYSGEKKAPVLTLFIGGNHEASNHLQELPYGGWVAPNIYYLGLAGVVKYRGVRIGGISGIFKSHDYRKGHFECPPYNSSTIRSIYHVRNIEVYKLKQLKQPIDIFLSHDWPRSIYHYGNKKQLLKTKSFFRQEVENNTLGSPAASELLEHLKPTYWFSAHLHVKFAALMQHQAKDKGQTARATKFLALDKCLPHRDFLQILEIEHDPSAPDYLEYDIEWLTILRATDDLINVTGRLWNMPENNGLHARWDYSATEEGMKEVLEKLNHDLKVPCNFSVTAACYDPSKPQT | not soluble
